This note sets out measurements from the supplement of paper PMC10567573.

B1: ANKRD40 (parent)
chain: VRIQNPSLRENDFIEIELDRQELT
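Note: lentivirally expressed fusions sorted by FACS into six bins by GFP to DsRed ratio, PSI derived from sequencing read proportions per bin multiplied by bin number.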

Variants of B1 are the subject of this data set. The data set can be described thus: protein stability index of a GFP-peptide fusion (GPS, HEK-293T) (PSI 1-6); higher = more stable. The note with it: c terminus: a fixed tail appended.
VRIQNPSLRENDFIEIEFDRQELT [L18F]: the protein stability index was 2.12.
Regarding VRIQNPSLRENDFIEIECDRQELT [L18C], the protein stability index was 3.61.
The result for VRIQNPSLRENDFIEIESDRQELT [L18S] reads 4.81; that for VRIQNPSLRENDFIEIEIDRQELT [L18I], 2.01.
With VRIQNPSLRENDFIEIEVDRQELT [L18V] the figure was 2.85; with VRIQNPSLRENLFIEIELDRQELT [D12L], 2.01.
With VRIQNPSLRENQFIEIELDRQELT [D12Q] the figure was 2.1.
With VRIQNPSLRENWFIEIELDRQELT [D12W], the protein stability index was determined as 2.37.
As to VRIQNPSLRENPFIEIELDRQELT [D12P], the protein stability index is 2.58.
For the variant VRIQNPSLRENEFIEIELDRQELT [D12E], the protein stability index was determined as 2.29.
The result for VRIQNPSLRENCFIEIELDRQELT [D12C] reads 2.46; that for VRIQNPSLRENSFIEIELDRQELT [D12S], 1.83; that for VRIQNPSLRENDFIEIELDRQELN [T24N], 2.48.
With VRIQNPSLRENDFIEIELDRQELW [T24W] the figure was 1.73; with VRIQNPSLRENDFIEIELDRQELK [T24K], 2.3.
The result for VRIQNPSLRENDFIEIELDRQELC [T24C] reads 2.14; that for VRIQNPSLRENDFIEIELDRQELY [T24Y], 1.59.
In the case of VRIQNPSLRENDFIEIELDRQELP [T24P], the protein stability index was determined as 2.49.
The result for VRIQNPSLRENDFIEIELDRQELF [T24F] reads 1.88; that for VRIQNPSLRENDFIEIELDRQELA [T24A], 2.3.
With VRIQNPSLRENDFIEIELDRQELI [T24I] the figure was 2.19; with VRIQNPSLRENDFIEIELDRQELQ [T24Q], 3.03; with VRIQNPSLRENDFIEIELDRQELR [T24R], 2.79.
The result for VRIQNPSLRENDFIEIELDRQELV [T24V] reads 2.2; that for VRIQNPSLRENDFIEIELDRQELD [T24D], 3.24.
Regarding VRIQNPSLHENDFIEIELDRQELT [R9H], the protein stability index was 1.81.
The result for VRIQNPSLIENDFIEIELDRQELT [R9I] reads 1.68.
For the variant VRIQNPSLFENDFIEIELDRQELT [R9F], the protein stability index was determined as 1.51.
The result for VRIQNPSLTENDFIEIELDRQELT [R9T] reads 2.54.
The result for VRIQNPSLVENDFIEIELDRQELT [R9V] reads 2.03; that for VRIQNPSLWENDFIEIELDRQELT [R9W], 2.14; that for VRIQNPSLEENDFIEIELDRQELT [R9E], 2.74.
With VRIQNPSLYENDFIEIELDRQELT [R9Y] the figure was 1.78.
Take VRIQNPSLRENDFIEIELDHQELT [R20H]: the protein stability index amounted to 2.32.
As for VRIQNPSLRENDFIEIELDTQELT [R20T], the protein stability index worked out at 1.78.
The result for VRIQNPSLRENDFIEIELDKQELT [R20K] reads 2.75; that for VRIQNPSLRENDFIEIELDSQELT [R20S], 2.08; that for VRIQNPSLRENDFIEIELDVQELT [R20V], 2.29.
With VRIQNPSLRENDFIEIELDDQELT [R20D] the figure was 2.75; with VRIQNPSLRENDFIEIELDAQELT [R20A], 2.31.
With VRIQNPSLRENDFIEIELDIQELT [R20I] the figure was 2.82; with VRIQNPSLRENDFIEIELDWQELT [R20W], 1.48; with VRIQNPSLRENDFIEIELDRRELT [Q21R], 2.24.
As to VRIQNPSLRENDFIEIELDRTELT [Q21T], the protein stability index was 2.47.
With VRIQNPSLRENDFIEIELDRLELT [Q21L] the figure was 1.8; with VRIQNPSLRENDFIEIELDRMELT [Q21M], 2.01; with VRIQNPSLRENDFIEIELDRFELT [Q21F], 1.77.
Turning to VRIQNPSLRENDFIEIELDRVELT [Q21V], the protein stability index worked out at 1.76.
As to VRIQNPSLRENDFIEIELDRGELT [Q21G], the protein stability index turned out to be 2.32.
With VRIQNPSLRENDFIEIELDRNELT [Q21N], the protein stability index was 2.99.
For the variant VKIQNPSLRENDFIEIELDRQELT [R2K], the protein stability index stood at 2.98.
Turning to VCIQNPSLRENDFIEIELDRQELT [R2C], the protein stability index amounted to 2.93.
The result for VTIQNPSLRENDFIEIELDRQELT [R2T] reads 3.5; that for VFIQNPSLRENDFIEIELDRQELT [R2F], 1.87.
With VIIQNPSLRENDFIEIELDRQELT [R2I] the figure was 2.29; with VAIQNPSLRENDFIEIELDRQELT [R2A], 2.73; with VVIQNPSLRENDFIEIELDRQELT [R2V], 2.46.
For the variant VMIQNPSLRENDFIEIELDRQELT [R2M], the protein stability index was determined as 3.05.
With VSIQNPSLRENDFIEIELDRQELT [R2S] the figure was 3.64; with VLIQNPSLRENDFIEIELDRQELT [R2L], 2.24; with VRIQGPSLRENDFIEIELDRQELT [N5G], 1.9.
The result for VRIQCPSLRENDFIEIELDRQELT [N5C] reads 2.45; that for VRIQMPSLRENDFIEIELDRQELT [N5M], 2.73.
The result for VRIQDPSLRENDFIEIELDRQELT [N5D] reads 2.48; that for VRIQHPSLRENDFIEIELDRQELT [N5H], 1.73; that for VRIQAPSLRENDFIEIELDRQELT [N5A], 1.86.
For VRIQSPSLRENDFIEIELDRQELT [N5S], the protein stability index was 1.74.
The result for VRIQKPSLRENDFIEIELDRQELT [N5K] reads 2.74; that for VRIQYPSLRENDFIEIELDRQELT [N5Y], 1.36; that for VRIQIPSLRENDFIEIELDRQELT [N5I], 2.43.
With VRIQNPSLRLNDFIEIELDRQELT [E10L] the figure was 1.53; with VRIQNPSLRGNDFIEIELDRQELT [E10G], 1.85; with VRIQNPSLRVNDFIEIELDRQELT [E10V], 2.05.
The result for VRIQNPSLRQNDFIEIELDRQELT [E10Q] reads 2.37; that for VRIQNPSLRPNDFIEIELDRQELT [E10P], 2.5.
Turning to VRIQNPSLRMNDFIEIELDRQELT [E10M], the protein stability index was determined as 1.74.
With VRIQNPSLRKNDFIEIELDRQELT [E10K] the figure was 2.08; with VRIQNPSLRENDFIEIELERQELT [D19E], 2.8; with VRIQNPSLRENDFIEIELVRQELT [D19V], 1.92.
With VRIQNPSLRENDFIEIELYRQELT [D19Y] the figure was 1.83; with VRIQNPSLRENDFIEIELPRQELT [D19P], 2.65.
The result for VRIQNPSLRENDFIEIELFRQELT [D19F] reads 1.56; that for VRIQNPSLRENDFIEIELGRQELT [D19G], 1.8; that for VRIQNPSLRENDFIEIELARQELT [D19A], 1.93.
Turning to VRIQNPSLRENDFIEIELRRQELT [D19R], the protein stability index came to 2.41.
As for VRIQNPSLRESDFIEIELDRQELT [N11S], the protein stability index was 2.58.
As to VRIQNPSLREKDFIEIELDRQELT [N11K], the protein stability index was 2.94.
The result for VRIQNPSLRELDFIEIELDRQELT [N11L] reads 1.7; that for VRIQNPSLREIDFIEIELDRQELT [N11I], 1.94; that for VRIQNPSLREDDFIEIELDRQELT [N11D], 2.08.
With VRIQNPSLREGDFIEIELDRQELT [N11G] the figure was 2.32; with VRIQNPSLRECDFIEIELDRQELT [N11C], 1.69; with WRIQNPSLRENDFIEIELDRQELT [V1W], 2.99.
On to IRIQNPSLRENDFIEIELDRQELT [V1I], for which the protein stability index was 2.03.
